Target: T1, BRB1 tyrosine kinase substrate peptide
T1 chain: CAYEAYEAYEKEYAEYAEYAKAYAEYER

B1: LTK (protein)
chain: KQKKWQGLQEMRLPSPELELSKLRTSAIRTAPNPYYCQVGLGPAQSWPLPPGVTEVSPANVTLLRALGHGAFGEVYEGLVIGLPGDSSPLQVAIKTLPELCSPQDELDFLMEALIISKFRHQNIVRCVGLSLRATPRLILLELMSGGDMKSFLRHSRPHLGQPSPLVMRDLLQLAQDIAQGCHYLEENHFIHRDIAARNCLLSCAGPSRVAKIGDFGMARDIYRASYYRRGDRALLPVKWMPPEAFLEGIFTSKTDSWSFGVLLWEIFSLGYMPYPGRTNQEVLDFVVGGGRMDPPRGCPGPVYRIMTQCWQHEPELRPSFASILERLQYCTQDPDVLNSLLPMELGPTPEEEGTSGLGNRSLECLRPPQPQELSPEKLKSWGGSPLGPWLSSGLKPLKSRGLQPQNLWNPTYRS
In the case of B1, the Signal to Noise Ratio with BRB1 Peptide (TR-FRET kinase assay; kinase 1 nM) is reported as 13.7.

B2: MER (protein)
chain: KRVQETKFGNAFTEEDSELVVNYIAKKSFCRRAIELTLHSLGVSEELQNKLEDVVIDRNLLILGKILGEGEFGSVMEGNLKQEDGTSLKVAVKTMKLDNSSQREIEEFLSEAACMKDFSHPNVIRLLGVCIEMSSQGIPKPMVILPFMKYGDLHTYLLYSRLETGPKHIPLQTLLKFMVDIALGMEYLSNRNFLHRDLAARNCMLRDDMTVCVADFGLSKKIYSGDYYRQGRIAKMPVKWIAIESLADRVYTSKSDVWAFGVTMWEIATRGMTPYPGVQNHEMYDYLLHGHRLKQPEDCLDELYEIMYSCWRTDPLDRPTFSVLRLQLEKLLESLPDVRNQADVIYVNTQLLESSEGLAQGSTLAPLDLNIDPDSIIASCTPRAAISVVTAEVHDSKPHEGRYILNGGSEEWEDLTSAPSAAVTAEKNSVLPGERLVRNGVSWSHSSMLPLGSSLPDELLFADDSSEGSEVLM
With B2 the Signal to Noise ratio with BRB1 Peptide (TR-FRET kinase assay; kinase 0.25 nM) was 12.9.

B3: BMX (protein)
chain: MDTKSILEELLLKRSQQKKKMSPNNYKERLFVLTKTNLSYYEYDKMKRGSRKGSIEIKKIRCVEKVNLEEQTPVERQYPFQIVYKDGLLYVYASNEESRSQWLKALQKEIRGNPHLLVKYHSGFFVDGKFLCCQQSCKAAPGCTLWEAYANLHTAVNEEKHRVPTFPDRVLKIPRAVPVLKMDAPSSSTTLAQYDNESKKNYGSQPPSSSTSLAQYDSNSKKIYGSQPNFNMQYIPREDFPDWWQVRKLKSSSSSEDVASSNQKERNVNHTTSKISWEFPESSSSEEEENLDDYDWFAGNISRSQSEQLLRQKGKEGAFMVRNSSQVGMYTVSLFSKAVNDKKGTVKHYHVHTNAENKLYLAENYCFDSIPKLIHYHQHNSAGMITRLRHPVSTKANKVPDSVSLGNGIWELKREEITLLKELGSGQFGVVQLGKWKGQYDVAVKMIKEGSMSEDEFFQEAQTMMKLSHPKLVKFYGVCSKEYPIYIVTEYISNGCLLNYLRSHGKGLEPSQLLEMCYDVCEGMAFLESHQFIHRDLAARNCLVDRDLCVKVSDFGMTRYVLDDQYVSSVGTKFPVKWSAPEVFHYFKYSSKSDVWAFGILMWEVFSLGKQPYDLYDNSQVVLKVSQGHRLYRPHLASDTIYQIMYSCWHELPEKRPTFQQLLSSIEPLREKDKH
In the case of B3, the Signal to Noise ratio with BRB1 Peptide (TR-FRET kinase assay; kinase 0.5 nM) is reported as 7.1.

B4: MET (protein)
chain: KKRKQIKDLGSELVRYDARVHTPHLDRLVSARSVSPTTEMVSNESVDYRATFPEDQFPNSSQNGSCRQVQYPLTDMSPILTSGDSDISSPLLQNTVHIDLSALNPELVQAVQHVVIGPSSLIVHFNEVIGRGHFGCVYHGTLLDNDGKKIHCAVKSLNRITDIGEVSQFLTEGIIMKDFSHPNVLSLLGICLRSEGSPLVVLPYMKHGDLRNFIRNETHNPTVKDLIGFGLQVAKGMKYLASKKFVHRDLAARNCMLDEKFTVKVADFGLARDMYDKEYYSVHNKTGAKLPVKWMALESLQTQKFTTKSDVWSFGVLLWELMTRGAPPYPDVNTFDITVYLLQGRRLLQPEYCPDPLYEVMLKCWHPKAEMRPSFSELVSRISAIFSTFIGEHYVHVNATYVNVKCVAPYPSLLSSEDNADDEVDTRPASFWETS
Work on B4 yielded a Signal to Noise ratio with BRB1 Peptide (TR-FRET kinase assay; kinase 0.5 nM) of 24.2.

B5: MUSK (protein)
chain: CCRRRKQWKNKKRESAAVTLTTLPSELLLDRLHPNPMYQRMPLLLNPKLLSLEYPRNNIEYVRDIGEGAFGRVFQARAPGLLPYEPFTMVAVKMLKEEASADMQADFQREAALMAEFDNPNIVKLLGVCAVGKPMCLLFEYMAYGDLNEFLRSMSPHTVCSLSHSDLSMRAQVSSPGPPPLSCAEQLCIARQVAAGMAYLSERKFVHRDLATRNCLVGENMVVKIADFGLSRNIYSADYYKANENDAIPIRWMPPESIFYNRYTTESDVWAYGVVLWEIFSYGLQPYYGMAHEEVIYYVRDGNILSCPENCPVELYNLMRLCWSKLPADRPSFTSIHRILERMCERAEGTVSV
In the case of B5, the Signal to Noise Ratio with BRB1 Peptide (TR-FRET kinase assay; kinase 1 nM) is reported as 3.1.

B6: PDGFRa (protein)
chain: KQKPRYEIRWRVIESISPDGHEYIYVDPMQLPYDSRWEFPRDGLVLGRVLGSGAFGKVVEGTAYGLSRSQPVMKVAVKMLKPTARSSEKQALMSELKIMTHLGPHLNIVNLLGACTKSGPIYIITEYCFYGDLVNYLHKNRDSFLSHHPEKPKKELDIFGLNPADESTRSYVILSFENNGDYMDMKQADTTQYVPMLERKEVSKYSDIQRSLYDRPASYKKKSMLDSEVKNLLSDDNSEGLTLLDLLSFTYQVARGMEFLASKNCVHRDLAARNVLLAQGKIVKICDFGLARDIMHDSNYVSKGSTFLPVKWMAPESIFDNLYTTLSDVWSYGILLWEIFSLGGTPYPGMMVDSTFYNKIKSGYRMAKPDHATSEVYEIMVKCWNSEPEKRPSFYHLSEIVENLLPGQYKKSYEKIHLDFLKSDHPAVARMRVDSDNAYIGVTYKNEEDKLKDWEGGLDEQRLSADSGYIIPLPDIDPVPEEEDLGKRNRHSSQTSEESAIETGSSSSTFIKREDETIEDIDMMDDIGIDSSDLVEDSFL
In the case of B6, the Signal to Noise ratio with BRB1 Peptide (TR-FRET kinase assay; kinase 0.5 nM) is reported as 8.

B7: PDGFRβ (protein)
chain: QKKPRYEIRWKVIESVSSDGHEYIYVDPMQLPYDSTWELPRDQLVLGRTLGSGAFGQVVEATAHGLSHSQATMKVAVKMLKSTARSSEKQALMSELKIMSHLGPHLNVVNLLGACTKGGPIYIITEYCRYGDLVDYLHRNKHTFLQHHSDKRRPPSAELYSNALPVGLPLPSHVSLTGESDGGYMDMSKDESVDYVPMLDMKGDVKYADIESSNYMAPYDNYVPSAPERTCRATLINESPVLSYMDLVGFSYQVANGMEFLASKNCVHRDLAARNVLICEGKLVKICDFGLARDIMRDSNYISKGSTFLPLKWMAPESIFNSLYTTLSDVWSFGILLWEIFTLGGTPYPELPMNEQFYNAIKRGYRMAQPAHASDEIYEIMQKCWEEKFEIRPPFSQLVLLLERLLGEGYKKKYQQVDEEFLRSDHPAILRSQARLPGFHGLRSPLDTSSVLYTAVQPNEGDNDYIIPLPDPKPEVADEGPLEGSPSLASSTLNEVNTSSTISCDSPLEPQDEPEPEPQLELQVEPEPELEQLPDSGCPAPRAEAEDSFL
For B7, the Signal to Noise ratio with BRB1 Peptide (TR-FRET kinase assay; kinase 0.25 nM) was 4.7.

B8: RET (protein)
chain: HCYHKFAHKPPISSAEMTFRRPAQAFPVSYSSSGARRPSLDSMENQVSVDAFKILEDPKWEFPRKNLVLGKTLGEGEFGKVVKATAFHLKGRAGYTTVAVKMLKENASPSELRDLLSEFNVLKQVNHPHVIKLYGACSQDGPLLLIVEYAKYGSLRGFLRESRKVGPGYLGSGGSRNSSSLDHPDERALTMGDLISFAWQISQGMQYLAEMKLVHRDLAARNILVAEGRKMKISDFGLSRDVYEEDSYVKRSQGRIPVKWMAIESLFDHIYTTQSDVWSFGVLLWEIVTLGGNPYPGIPPERLFNLLKTGHRMERPDNCSEEMYRLMLQCWKQEPDKRPVFADISKDLEKMMVKRRDYLDLAASTPSDSLIYDDGLSEEETPLVDCNNAPLPRALPSTWIENKLYGMSDPNWPGESPVPLTRADGTNTGFPRYPNDSVYANWMLSPSAAKLMDTFDS
Work on B8 yielded a Signal to Noise ratio with BRB1 Peptide (TR-FRET kinase assay; kinase 0.5 nM) of 20.3.

B9: RON (protein)
chain: SYWWRRKQLVLPPNLNDLASLDQTAGATPLPILYSGSDYRSGLALPAIDGLDSTTCVHGASFSDSEDESCVPLLRKESIQLRDLDSALLAEVKDVLIPHERVVTHSDRVIGKGHFGVVYHGEYIDQAQNRIQCAIKSLSRITEMQQVEAFLREGLLMRGLNHPNVLALIGIMLPPEGLPHVLLPYMCHGDLLQFIRSPQRNPTVKDLISFGLQVARGMEYLAEQKFVHRDLAARNCMLDESFTVKVADFGLARDILDREYYSVQQHRHARLPVKWMALESLQTYRFTTKSDVWSFGVLLWELLTRGAPPYRHIDPFDLTHFLAQGRRLPQPEYCPDSLYQVMQQCWEADPAVRPTFRVLVGEVEQIVSALLGDHYVQLPATYMNLGPSTSHEMNVRPEQPQFSPMPGNVRRPRPLSEPPRPT
B9 gave a Signal to Noise ratio with BRB1 Peptide (TR-FRET kinase assay; kinase 0.25 nM) of 3.5.

B10: ROR1 (protein)
chain: CRNNQKSSSAPVQRQPKHVRGQNVEMSMLNAYKPKSKAKELPLSAVRFMEELGECAFGKIYKGHLYLPGMDHAQLVAIKTLKDYNNPQQWTEFQQEASLMAELHHPNIVCLLGAVTQEQPVCMLFEYINQGDLHEFLIMRSPHSDVGCSSDEDGTVKSSLDHGDFLHIAIQIAAGMEYLSSHFFVHKDLAARNILIGEQLHVKISDLGLSREIYSADYYRVQSKSLLPIRWMPPEAIMYGKFSSDSDIWSFGVVLWEIFSFGLQPYYGFSNQEVIEMVRKRQLLPCSEDCPPRMYSLMTECWNEIPSRRPRFKDIHVRLRSWEGLSSHTSSTTPSGGNATTQTTSLSASPVSNLSNPRYPNYMFPSQGITPQGQIAGFIGPPIPQNQRFIPINGYPIPPGYAAFPAAHYQPTGPPRVIQHCPPPKSRSPSSASGSTSTGHVTSLPSSGSNQEANIPLLPHMSIPNHPGGMGITVFGNKSQKPYKIDSKQASLLGDANIHGHTESMISAEL
Protein B10 has a Signal to Noise Ratio with BRB1 Peptide (TR-FRET kinase assay; kinase 20 nM) of 1.1.

B11: ROR2 (protein)
chain: VCMCRNKQKASASTPQRRQLMASPSQDMEMPLINQHKQAKLKEISLSAVRFMEELGEDRFGKVYKGHLFGPAPGEQTQAVAIKTLKDKAEGPLREEFRHEAMLRARLQHPNVVCLLGVVTKDQPLSMIFSYCSHGDLHEFLVMRSPHSDVGSTDDDRTVKSALEPPDFVHLVAQIAAGMEYLSSHHVVHKDLATRNVLVYDKLNVKISDLGLFREVYAADYYKLLGNSLLPIRWMAPEAIMYGKFSIDSDIWSYGVVLWEVFSYGLQPYCGYSNQDVVEMIRNRQVLPCPDDCPAWVYALMIECWNEFPSRRPRFKDIHSRLRAWGNLSNYNSSAQTSGASNTTQTSSLSTSPVSNVSNARYVGPKQKAPPFPQPQFIPMKGQIRPMVPPPQLYVPVNGYQPVPAYGAYLPNFYPVQIPMQMAPQQVPPQMVPKPSSHHSGSGSTSTGYVTTAPSNTSMADRAALLSEGADDTQNAPEDGAQSTVQEAEEEEEGSVPETELLGDCDTLQVDEAQVQLEA
With B11 the Signal to Noise Ratio with BRB1 Peptide (TR-FRET kinase assay; kinase 20 nM) was 1.
